# Measurements taken from patent US20070004634A1 (published 2007).
# Values joined by “and” are separate entries in the source; they are usually repeats but may differ in a detail not shown here. Equal values may be shown once. Positions of bridges follow the written chain, without caps; N, C: chain ends. No end group written: not given here. MBP = maltose binding protein (pMAL-c2)
# B1: H2C-A-H6 (peptide)
# peptide: VGRASGFPENFYDWFGRQLSLQSGEQ
# B2: RP6KK (peptide)
# peptide: TFYSCLASLLTGTPQPNRGPWERCRKK
# modifications: disulfide 5-24 (inferred)
# B3: D815 (peptide)
# peptide: WLDQERAWLWCEISGRGCLS
# B4: G33 (peptide)
# peptide: GIISQSCPESFYDWFAGQVSDPWWCW
# B5: RP56 (peptide)
# peptide: EGYSWLRDVLMEKQAQLKREGSVGRQE
# B6: D112-12-RP30-IGF (peptide)
# chain: ADYKDCWARPCGDAANFYDWFVQQASKKGGSGGSGGSGGSSFYSCLESLVNGGAERSDGQWEGCRAAAGAPVPYPDPLEPRPG
# B7: 20E2B-3-C2-IGFR (peptide)
# peptide: GNGDGMFYQLLSLLVGRDMHV
# B8: B6Hα-2-D1-IR (peptide)
# peptide: GCEVIVEEGDSADPFYHKLSELCQGS
# B9: B6Hα-4-G8-IR (peptide)
# peptide: GGTKAVAKVGTRDDPFYHKLSELLQGS
# B10: 20E2B-3-C8-IGFR (peptide)
# peptide: QPAPDGFYSALMKLIGRGGVS
# B11: B6Hα-3-E9-IR (peptide)
# peptide: RCEEKQAEVGPSSDPFYHKMSELLGCR
# B12: H2CA-4-H9-IGFR (peptide)
# peptide: RGAVAGFHDQFYDWFDRQVSRVHKFG
# B13: NNRPγ-4-A1-IR (peptide)
# peptide: IIGGFYSYFNSVLRLGT
# modifications: not fully specified
# B14: B6Hα-3-F10-IR (peptide)
# peptide: GCVVEWQKWHGASDPFYHKLSELGGCS
# B15: 20E2B-3-D8-IGFR (peptide)
# peptide: GGTEVDFYRALERLVRGQLGL
# B16: 20E2Bβ-4-G7-IR (peptide)
# peptide: LQPCSGFYECIERLIGVKLSG
# modifications: not fully specified; cysteine pairing not given here
# B17: 20E2B-3-E8-IFGR (peptide)
# peptide: LRIANLFYQRLWDLAFGGGG
# B18: 20E2B-3-D11-IGFR (peptide)
# peptide: LGVTDGFYAALGYLIHGVGQF
# B19: B6Hα-3-F11-IR (peptide)
# peptide: RGMKEEVLVGGSTDPFYHKLSELLQGS
# B20: 20E2A-3-D10-IGFR (peptide)
# peptide: MMVVDGFYDALHQLVVAQSLG
# B21: 20E2B-4-F9-IGFR (peptide)
# peptide: QPDHSYFYSLLQELVGSEERL
# B22: 20C-3-A1-IGFR (peptide)
# peptide: SSYGCDGFYLMLFSLGLVASQELEC
# B23: A6L-0-H3-IR (peptide)
# peptide: YRGMLVLGRISGGAGKAASERPARIGQKVSAVNFYDWFV
# B24: A6L-0-E6-IR (peptide)
# peptide: YRGMLVLGRSSDGAGKVAFERPARIGQTVFAVNFYDWFV
# B25: 20C-3-F6-IGFR (peptide)
# peptide: DRDFCRFYERLTALVGGQVDGGWPC
# B26: B6Hα-2-D6-IR (peptide)
# peptide: GRTMAVMAAGGPDDPFYHKLSELVQGG
# B27: B6Hα-1-B5-IR (peptide)
# peptide: CCTTEMVVMDARDDPFYHKLSELVTGG
# B28: H2CA-3-E11-IGFR (peptide)
# peptide: HLADGQFHEKFYDWFERQISSRCNDC
# B29: B6Hα-2-C7-IR (peptide)
# peptide: RGIVAMVEATEVGSDHDPFYHKLSELVQGS
# B30: B6Hα-1-A2-IR (peptide)
# peptide: RGCNDDGGKGWSDDPFYHKLSELICGG
# B31: MBP fusion 435 (H2C-3aa-H2C-3aa-H2C) (other, not shown: large carriers; small tags and cut ends)
# chain: NNNNLGIEGRISEFIEGRAQPAMAFHENFYDWFVRQVSGGSFHENFYDWFVRQVSGGSFHENFYDWFVRQVSAAAGAPVPYPDPLEPRAA
# modifications: N-terminus of the given chain is fused to the C-terminus of MBP, which is not given
# notes: also called RB435
# B32: MBP fusion 463 (H2C-3aa-H2C) (other, not shown: large carriers; small tags and cut ends)
# chain: NNNNLGIEGRISEFIEGRAQPAMAFHENFYDWFVRQVSGGSFHENFYDWFVRQVSAAAGAPVPYPDPLEPRAA
# modifications: N-terminus of the given chain is fused to the C-terminus of MBP, which is not given
# notes: also called RB463
# B33: RP30-IGF-12-D112 (peptide)
# chain: ADYKDSFYSCLESLVNGGAERSDGQWEGCRGGSGGSGGSGGSCWARPCGDAANFYDWFVQQASKKAAAGAPVPYPDPLEPRPG
# B34: D112-12-D112 (peptide)
# chain: ADYKDCWARPCGDAANFYDWFVQQASKKGGSGGSGGSGGSCWARPCGDAANFYDWFVQQASKKAAAGAPVPYPDPLEPRPG
# B35: MBP fusion 464 (LF-H2C) (other, not shown: large carriers; small tags and cut ends)
# chain: {MBP}-NNNNLGIEGRISEFIEGRDYKDDDDKFHENFYDWFVRQVSAAGAPVPYPDPLEPRAA
# notes: LF = long FLAG; also called RB464
# B36: RP6 (peptide)
# peptide: TFYSCLASLLTGTPQPNRGPWERCR
# B37: RP9 (peptide)
# peptide: GSLDESFYDWFERQLG
# B38: C1 (peptide)
# peptide: CWARPCGDAANFYDWFVQQAS
# notes: also called C1 (D112); D112
# Molecular target: T1, IGF-1R on cells (MCF-7, MiaPaCa, FDC-P2 cells expressing human IGF-1R) (human, UniProt P08069 31-1367)
# Assay: cell-based or functional assay
row,"Cellular IC50 (M), MCF-7 cell proliferation",Binder
1,4e-07 M,B1
2,9e-06 M,B2

# Molecular target: T1, IGF-1R on cells (MCF-7, MiaPaCa, FDC-P2 …)
# Assay: cell-based or functional assay
# Remark: another data set of the same source
row,"Cellular EC50 (M), FDC-P2 cell proliferation",Binder
1,3e-06 M and 1e-06 M,B3
2,2e-06 M,B4

# Molecular target: T2, His-tagged soluble recombinant human IGF-IR (srhIGF-1R-his) (human, UniProt P08069 31-935)
# T2 construct: extracellular domain; Bought construct; not shown: His tag
# Assay: ALPHAScreen competition against b-hIGF-1 on srhIGF-1R-his
row,IC50,Binder
1,60000 nM,B5

# Molecular target: T2, His-tagged soluble recombinant human …
# Assay: as above
# Remark: another data set of the same source
row,IC50,Binder
1,170 nM,B6

# Molecular target: T3, soluble human insulin receptor-immunoglobulin heavy chain chimera (sIR-Fc; Bass et al., 1996) (human, UniProt P06213-2 28-944)
# T3 construct: extracellular domain; also called soluble IR (Bass construct); Eu3+-sIR-Fc; not shown: immunoglobulin heavy chain constant domains per Bass et al., 1996
# Assay: phage ELISA
# T3 sequence (P06213 other isoform, or with tags, fused parts or gaps mutant): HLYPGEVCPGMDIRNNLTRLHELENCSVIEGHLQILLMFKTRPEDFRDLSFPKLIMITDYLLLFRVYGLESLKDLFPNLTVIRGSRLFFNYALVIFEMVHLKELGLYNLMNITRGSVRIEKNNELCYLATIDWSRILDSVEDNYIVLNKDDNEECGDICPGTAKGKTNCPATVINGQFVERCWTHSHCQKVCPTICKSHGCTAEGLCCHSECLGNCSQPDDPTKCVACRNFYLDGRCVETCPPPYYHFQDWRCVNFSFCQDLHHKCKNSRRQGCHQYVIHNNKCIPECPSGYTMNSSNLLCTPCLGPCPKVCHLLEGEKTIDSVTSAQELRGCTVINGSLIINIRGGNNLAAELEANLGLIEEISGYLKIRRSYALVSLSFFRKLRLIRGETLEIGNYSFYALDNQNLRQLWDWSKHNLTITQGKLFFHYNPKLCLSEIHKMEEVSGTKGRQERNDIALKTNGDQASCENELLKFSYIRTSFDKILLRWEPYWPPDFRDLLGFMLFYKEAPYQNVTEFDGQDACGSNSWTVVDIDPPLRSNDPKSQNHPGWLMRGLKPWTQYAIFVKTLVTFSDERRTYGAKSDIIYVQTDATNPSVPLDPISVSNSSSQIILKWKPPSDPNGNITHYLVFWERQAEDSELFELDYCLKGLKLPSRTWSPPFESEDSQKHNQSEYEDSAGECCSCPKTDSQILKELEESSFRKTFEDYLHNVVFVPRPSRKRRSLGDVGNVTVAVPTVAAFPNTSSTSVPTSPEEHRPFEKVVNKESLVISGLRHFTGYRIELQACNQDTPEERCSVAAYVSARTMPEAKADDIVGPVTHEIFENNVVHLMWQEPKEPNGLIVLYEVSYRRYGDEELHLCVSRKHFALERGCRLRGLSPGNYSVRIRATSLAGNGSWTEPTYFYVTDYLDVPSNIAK
IR/IGF-1R ratio comparison,ratio over background,Binder
0.1,–,B7
0.2,–,B8
0.3,–,B9
0.1,–,B10
0.1,–,B11
0.3,1.9,B12
0.2,–,B13
0.2,–,B14
0.1,–,B15
0.1,–,B16
0.1,–,B17
0.1,–,B18
0.1,–,B19
0.3,–,B20
0.1,–,B21
0.1,–,B22
0.1,2,B23
0.1,–,B24
0.1,–,B25

# Molecular target: T4, soluble IGF-1R (recombinant human IGF-1R extracellular domain, R&D Systems Cat. # 391-GR/CF) (human, UniProt P08069 31-935)
# T4 construct: extracellular domain; LANCE Eu3+-labelled in the TR-FRET assays; also called sIGF-1R; rhIGF-1R
# Assay: phage ELISA
row,IGF-1R/IR ratio comparison,Binder
1,13.8,B7
2,4.4,B26
3,4.2,B8
4,7.6,B18
5,20.5,B27
6,2.2,B28
7,6.7,B29
8,14.1,B25
9,14.6,B30

# Molecular target: T5, human insulin receptor (HIR) (human, UniProt P06213-2 28-1370, limits assumed)
# Assay: HIR binding assay (method not restated)
# T5 sequence (P06213 other isoform, or with tags, fused parts or gaps limits assumed): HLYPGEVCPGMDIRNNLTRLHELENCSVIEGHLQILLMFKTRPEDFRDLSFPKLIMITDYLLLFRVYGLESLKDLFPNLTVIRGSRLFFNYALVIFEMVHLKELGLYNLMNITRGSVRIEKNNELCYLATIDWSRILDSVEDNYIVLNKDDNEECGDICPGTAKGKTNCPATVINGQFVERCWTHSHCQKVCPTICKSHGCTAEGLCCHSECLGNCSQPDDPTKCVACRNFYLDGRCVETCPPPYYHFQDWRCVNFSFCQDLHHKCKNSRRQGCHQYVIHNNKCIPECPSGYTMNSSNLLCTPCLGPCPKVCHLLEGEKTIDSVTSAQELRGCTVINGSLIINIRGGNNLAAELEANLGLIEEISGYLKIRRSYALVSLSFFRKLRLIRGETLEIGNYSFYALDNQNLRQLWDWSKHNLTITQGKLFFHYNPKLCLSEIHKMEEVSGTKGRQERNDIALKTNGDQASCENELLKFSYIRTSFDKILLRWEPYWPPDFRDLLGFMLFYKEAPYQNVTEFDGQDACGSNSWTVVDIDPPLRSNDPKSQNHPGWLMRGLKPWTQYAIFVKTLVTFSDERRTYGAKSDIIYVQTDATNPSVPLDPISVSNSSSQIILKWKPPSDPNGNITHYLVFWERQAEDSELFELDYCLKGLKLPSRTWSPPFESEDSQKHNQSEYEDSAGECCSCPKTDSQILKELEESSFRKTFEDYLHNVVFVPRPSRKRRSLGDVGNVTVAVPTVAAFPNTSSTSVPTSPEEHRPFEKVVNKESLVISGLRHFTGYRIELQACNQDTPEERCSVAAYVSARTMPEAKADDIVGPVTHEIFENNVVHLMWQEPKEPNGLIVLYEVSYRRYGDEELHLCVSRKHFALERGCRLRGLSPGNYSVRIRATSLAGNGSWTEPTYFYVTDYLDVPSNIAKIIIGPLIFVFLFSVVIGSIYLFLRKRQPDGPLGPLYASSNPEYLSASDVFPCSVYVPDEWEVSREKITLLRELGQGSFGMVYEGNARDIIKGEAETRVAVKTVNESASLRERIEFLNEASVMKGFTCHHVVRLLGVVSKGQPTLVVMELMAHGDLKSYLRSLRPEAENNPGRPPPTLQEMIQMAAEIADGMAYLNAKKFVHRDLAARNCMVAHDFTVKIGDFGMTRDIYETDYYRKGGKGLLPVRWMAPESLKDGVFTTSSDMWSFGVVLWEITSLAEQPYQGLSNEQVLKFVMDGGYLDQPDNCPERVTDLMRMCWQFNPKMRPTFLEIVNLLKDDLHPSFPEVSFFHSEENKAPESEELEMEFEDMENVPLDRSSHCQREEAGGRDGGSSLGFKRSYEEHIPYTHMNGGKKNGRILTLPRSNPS
row,Kd,Binder
1,2000 nM,B31
2,960 nM,B32

# Molecular target: T2, His-tagged soluble recombinant human …
# Assay: ALPHAScreen competition against b-hIGF-1 on srhIGF-1R-his
# Remark: another data set of the same source
row,IC50,Binder
1,600 nM,B4

# Molecular target: T1, IGF-1R on cells (MCF-7, MiaPaCa, FDC-P2 …)
# Assay: cell-based or functional assay
# Remark: another data set of the same source
row,"Cellular EC50 (M), MCF-7 cell proliferation",Binder
1,4.1e-07 M,B33
2,3.5e-07 M,B34
3,3e-07 M,B4
4,2.5e-07 M,B6

# Molecular target: T2, His-tagged soluble recombinant human …
# Assay: ALPHAScreen competition against b-hIGF-1 on srhIGF-1R-his
# Remark: another data set of the same source
row,IC50,Binder
1,32000 nM,B1
2,180 nM,B2

# Molecular target: T5, human insulin receptor (HIR)
# Assay: HIR binding assay of MBP fusions (method not restated)
row,Kd,Binder
1,2000 nM,B31
2,960 nM,B32
3,39 nM,B35

# Molecular target: T1, IGF-1R on cells (MCF-7, MiaPaCa, FDC-P2 …)
# Assay: cell-based or functional assay
# Remark: another data set of the same source
row,"Cellular EC50 (M), MiaPaCa cell proliferation",Binder
1,2.5e-06 M,B34
2,2.2e-06 M,B6

# Molecular target: T2, His-tagged soluble recombinant human …
# Assay: ALPHAScreen competition against b-hIGF-1 on srhIGF-1R-his
# Remark: another data set of the same source
row,IC50,Binder
1,1100 nM,B33
2,600 nM,B4
3,170 nM,B6

# Molecular target: T2, His-tagged soluble recombinant human …
# Assay: as above
# Remark: another data set of the same source
row,IC50,Binder
1,350 nM,B36
2,32000 nM,B1
3,970 nM,B37
4,42 nM,B38

# Molecular target: T1, IGF-1R on cells (MCF-7, MiaPaCa, FDC-P2 …)
# Assay: cell-based or functional assay
# Remark: another data set of the same source
row,"Cellular IC50 (M), FDC-P2 cell proliferation",Binder
1,3e-07 M,B1
2,1e-06 M,B2
3,2e-06 M,B37
4,4e-06 M,B38

# Molecular target: T1, IGF-1R on cells (MCF-7, MiaPaCa, FDC-P2 …)
# Assay: cell-based or functional assay
# Remark: another data set of the same source
row,"Cellular IC50 (M), MiaPaCa cell proliferation",Binder
1,9.4e-06 M,B5

# Molecular target: T6, soluble human insulin receptor-immunoglobulin heavy chain chimera (sIR-Fc) (human, UniProt P06213-2 28-944, limits assumed)
# T6 construct: extracellular domain; not shown: immunoglobulin heavy chain constant domains
# Assay: FP competition against FITC-RP9 on sIR-Fc
# T6 sequence (P06213 other isoform, or with tags, fused parts or gaps mutant limits assumed): as the sequence (P06213 other isoform, or with tags, fused parts or gaps mutant) above
row,IC50,Binder
1,52 nM,B38
